Holding throughout (assay): SEC-MALS; Superdex 200 Increase 5/150 GL; proteins at 3 mg/ml; 20 mM Tris-HCl pH 8.0, 300 mM NaCl, 5% glycerol, 2 mM 2-mercaptoethanol
On the technique in general: In gel filtration, larger molecules generally elute earlier.

Data set [1] concerns the target VvRraA1 (RraA ortholog 1 of Vibrio vulnificus), hexahistidine-tagged (Vibrio vulnificus MO6-24/O).
The target of data set [2] is VvRraA2 (RraA ortholog 2 of Vibrio vulnificus), hexahistidine-tagged (Vibrio vulnificus MO6-24/O).
Data set [3] deals with the molecule itself.

For the molecule “VvRraA1 (RraA ortholog 1 of Vibrio vulnificus), hexahistidine-tagged (natural protein)”, in data set [1], the stoichiometry N (commonly a count of units in the complex or per binding partner) is 6.

With “VvRraA2 (RraA ortholog 2 of Vibrio vulnificus), hexahistidine-tagged (natural protein)”, in data set [2], the stoichiometry N was found to be 3.

B1: E. coli RraA (natural protein)
chain: MKYDTSELCDIYQEDVNVVEPLFSNFGGRASFGGQIITVKCFEDNGLLYDLLEQNGRGRVLVVDGGGSVRRALVDAELARLAVQNEWEGLVIYGAVRQVDDLEELDIGIQAMAAIPVGAAGEGIGESDVRVNFGGVTFFSGDHLYADNTGIILSEDPLDIE
notes: RraA, regulator of ribonuclease activity A, Escherichia coli; the construct is not described here; Hexamer by SEC-MALS (87.05 kDa); also called EcRraA
Turning to B1, the “stoichiometry N” value in data set [3] is 6.

(Values after paper PMC5738090, “Functional implications of hexameric assembly of RraA proteins from Vibrio vulnificus” (PLoS ONE, 2017).)
